What was measured:
[1] = molecular target: recombinant human TIGIT extra cellular domain (ECD) protein (human) (UniProt Q495A1); assay: ELISA on recombinant human TIGIT ECD
[2] = molecular target: human TIGIT stably expressed on cells (Jurkat; 293T) (human) (UniProt Q495A1); assay: flow cytometry (CytoFlex), whole cell binding on h-TIGIT cells; representative of three experiments
[3] = molecular target: recombinant cynomolgus TIGIT (cyno-TIGIT ECD) (cynomolgus monkey); assay: ELISA on recombinant cyno-TIGIT
[4] = molecular target: human TIGIT stably expressed on cells (Jurkat; 293T) (human) (UniProt Q495A1); assay: whole cell binding, flow cytometry, n=3
[5] = molecular target: human TIGIT stably expressed on cells (Jurkat; 293T) (human) (UniProt Q495A1); assay: cell-based or functional assay
[6] = molecular target: recombinant mouse-TIGIT (mouse) (UniProt P86176); assay: ELISA on recombinant mouse-TIGIT
Sequence of recombinant mouse-TIGIT (mouse) (P86176 29-148 limits assumed): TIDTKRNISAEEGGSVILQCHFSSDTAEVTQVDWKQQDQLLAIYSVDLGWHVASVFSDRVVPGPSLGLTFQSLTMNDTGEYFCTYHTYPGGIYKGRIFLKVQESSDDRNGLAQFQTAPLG

Sequence of human TIGIT stably expressed on cells (Jurkat; 293T) (human) (Q495A1 22-244 limits assumed): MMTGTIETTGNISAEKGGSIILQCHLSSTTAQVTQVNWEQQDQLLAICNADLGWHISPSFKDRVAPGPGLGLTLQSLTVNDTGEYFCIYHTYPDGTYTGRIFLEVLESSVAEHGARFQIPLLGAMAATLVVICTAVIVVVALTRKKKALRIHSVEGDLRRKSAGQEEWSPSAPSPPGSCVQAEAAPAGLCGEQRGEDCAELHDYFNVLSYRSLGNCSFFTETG
Sequence of recombinant cynomolgus TIGIT (cyno-TIGIT ECD) (cynomolgus monkey) (chain, as listed by the source): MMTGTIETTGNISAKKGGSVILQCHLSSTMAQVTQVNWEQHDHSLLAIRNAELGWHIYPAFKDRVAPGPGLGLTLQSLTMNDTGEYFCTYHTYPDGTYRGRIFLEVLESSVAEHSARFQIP
Sequence of recombinant human TIGIT extra cellular domain (ECD) protein (human) (Q495A1 22-138 limits assumed): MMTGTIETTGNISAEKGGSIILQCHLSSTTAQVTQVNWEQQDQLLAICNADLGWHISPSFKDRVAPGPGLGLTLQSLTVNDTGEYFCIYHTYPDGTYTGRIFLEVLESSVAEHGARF

EC50 (read off the curve) [1] [µg/mL] | EC50 (read off the curve) [2] [nM] | EC50 (read off the curve) [3] [µg/mL] | EC50 [4] [nM] | EC50, TIGIT blockade NFAT luciferase reporter assay [5] [nM] | EC50 (read off the curve) [6] [µg/mL] | Substance
0.1 | 0.5 | 0.1 | 0.61 | 0.72 | – | Reference Ab 2 (reference anti-human-TIGIT antibody with the amino acid sequences of Tiragolumab, U.S. 2017/0088613 A1)
– | – | – | – | – | 0.08 | anti-mouse TIGIT reference antibody (Biolegend #142101)
